In article PMC6643279 (Biochemistry, 2018):

Experiments:
Test in all cases: purified protein
[1] = test system: CC(=O)Oc1ccc2ccccc2c1; conditions: pH 8.0; 30.0 °C
[2] = test system: CC(=O)OCC(COP(=O)(O)O)OC(C)=O; conditions: pH 8.0; 30.0 °C
[3] = test system: CC(=O)Oc1c[nH]c2ccccc12; conditions: pH 8.3; 30.0 °C

With “phosphotriesterase homology protein (PHP) (Escherichia coli K-12)” the Km [1] was 1800 ± 200 µM, the kcat/Km [1] was 1400 ± 200 M⁻¹ s⁻¹ and the Km [2] was 6000 ± 500 µM. The kcat/Km [2] was 4600 ± 650 M⁻¹ s⁻¹, the Km [3] was 1800 ± 200 µM and the kcat/Km [3] was 180 ± 20 M⁻¹ s⁻¹.
